From patent US20070264253A1 (Eli Lilly, published 2007)
Blank lines part the entries; values can stand above or below the binder they belong to.

What was measured:
EGFR-AP fusion protein [1] = biological target: T1, EGFR-AP fusion protein (UniProt P00533 25-645); assay: BIAcore SPR, EGFR-AP immobilised on the chip
T1 construct: Immobilised on the BIAcore sensor chip; Neither the species nor the residues of the EGFR part are stated
Procedure: (§1) Sensorgrams were obtained at each concentration and were analyzed with BIA Evaluation 2.0, a program to determine the rate constants, kₒₙ and koff. The affinity constant, Kd, was calculated from the ratio of rate constants, koff/kₒₙ.

EGFR-AP fusion protein [2] = biological target: T1, EGFR-AP fusion protein; assay: BIAcore SPR, EGFR-AP immobilised on the chip; koff/kon
Procedure: as §1

koff (EGFR-AP fusion protein [1]): 0.00367 s⁻¹
kon (EGFR-AP fusion protein [1]): 2.29e+06 M⁻¹ s⁻¹
Kd (EGFR-AP fusion protein [2]): 1.78 nM
B1: IMC-11F8 Fab (Fab, V domains shown)
VH: QVQLQESGPGLVKPSQTLSLTCTVSGGSISSGDYYWSWIRQPPGKGLEWIGYIYYSGSTDYNPSLKSRVTMSVDTSKNQFSLKVNSVTAADTAVYYCARVSIFGVGTFDYWGQGTLVTVSS
VL: EIVMTQSPATLSLSPGERATLSCRASQSVSSYLAWYQQKPGQAPRLLIYDASNRATGIPARFSGSGSGTDFTLTISSLEPEDFAVYYCHQYGSTPLTFGGGTKAEIK

koff (EGFR-AP fusion protein [1]): 0.00058 s⁻¹
kon (EGFR-AP fusion protein [1]): 1.86e+06 M⁻¹ s⁻¹
Kd (EGFR-AP fusion protein [2]): 0.32 nM
B2: IMC-11F8 (full human IgG1 anti-EGFR antibody) (antibody, V domains shown)
VH: B1 VH
VL: B1 VL
notes: also called IMC-C11F8; 11F8 monoclonal antibody
